The target of assay [1] is His-SUMO-XB-GGS (E. coli). Kind of assay: BLI; His-SUMO-tagged peptide loaded on Octet NTA biosensors (150 nM Anchor-Linker or 100 nM GroTAC1), blocked with 86 nM His-SUMO; ClpX as analyte, 1 uM to 31.25 nM; 30 C; 25 mM HEPES pH 8.0, 200 mM KCl, 10 mM MgCl2, 0.05% Tween-20, 2.5 mM ATP; 1:1 fit. Background: BLI is a label-free optical method that tracks binding on a fibre tip over time.

Assay [2] addresses His-SUMO-XB-GGS-SBP (E. coli). Described as above.
Assay [3] has as its target His-SUMO-XB-GGS (E. coli). The assay can be described thus: BLI; His-SUMO-tagged peptide loaded on Octet NTA biosensors (150 nM Anchor-Linker or 100 nM GroTAC1), blocked with His-SUMO; ClpX 1 uM to 31.25 nM in solution; 30 °C; 25 mM HEPES pH 8.0, 200 mM KCl, 10 mM MgCl2, 0.05% Tween-20, 2.5 mM ATP; 1:1 model.
In assay [4] the target is His-SUMO-XB-GGS-SBP (E. coli). The description is as above.
Assay [5] deals with His-SUMO-GGS-SBP. Kind of assay: BLI; His-SUMO-tagged peptide loaded on Octet NTA biosensors (200 nM Linker-Bait or 400 nM GroTAC1), blocked with His-SUMO; GroEL 2.5 uM to 78.1 nM in solution; 30 °C; 25 mM HEPES pH 8.0, 300 mM KCl, 10 mM MgCl2, 0.05% Tween-20, 12.5 mM ATP; 1:1 model.
For assay [6], the target named is His-SUMO-XB-GGS-SBP (E. coli). The description is as above.
Assay [7] addresses His-SUMO-GGS-SBP. Kind of assay: BLI; His-SUMO-tagged peptide loaded on Octet NTA biosensors (200 nM Linker-Bait or 400 nM GroTAC1), blocked with 257 nM His-SUMO; GroEL as analyte, 2.5 uM to 78.1 nM; 30 C; 25 mM HEPES pH 8.0, 300 mM KCl, 10 mM MgCl2, 0.05% Tween-20, 12.5 mM ATP; 1:1 fit.
The target of assay [8] is His-SUMO-XB-GGS-SBP (E. coli). Described as above.
Another assay addresses T1, His-ZBD (E. coli, UniProt P0A6H1 1-52).
T1 construct: also called 6xHis-ZBD; source: E. coli BL21 DE3, purified (HisTrap, Superdex200); not shown: His6, N-terminal, kept
T1 sequence (looked up): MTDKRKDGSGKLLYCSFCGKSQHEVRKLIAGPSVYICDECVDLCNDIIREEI
Kind of assay: BLI; 1.37 uM His-ZBD loaded on Octet NTA biosensors, blocked with 600 nM cAbGFP; untagged synthetic peptide as analyte, 1 uM to 31.25 nM; 30 C; 25 mM HEPES pH 8.0, 200 mM KCl, 10 mM MgCl2, 2.5 mM ATP, 0.05% Tween 20; 1:1 fit. Particulars: both partners purified.

Square brackets hold non-standard residues; d marks the D form. Primed or numbered codes have the meaning given here. Ends that are not written are not given here. PEG3′ = three-unit polyethylene glycol linker

Broadly, the Kd is the constant that tells how readily two partners part at equilibrium. Read a low Kd as a tighter complex. The koff is a measure of how fast the partners let go of each other. A high value points to a short-lived complex. As a reminder, the kon is the rate constant with which the complex forms.

In the case of “ClpX (from UniProt P0A6H1 1-424) (enzyme)”, the Kd in assay [1] was found to be 64.8 nM; in assay [2] it was 70.4 nM; in [3], 65 nM; in assay [4], 70 nM. Further, the koff was determined as 0.00495 s⁻¹ in assay [1] and 0.00769 s⁻¹ in assay [2]. Moreover, the values for the kon in [1] and in [2] were 76500 M⁻¹ s⁻¹ and 109000 M⁻¹ s⁻¹, respectively.

With “GroEL (from UniProt P0A6F5 1-548) (natural protein)”, the figures for the Kd (with His-SUMO-GGS-SBP [5]; in [6]; with His-SUMO-GGS-SBP [7]) were 94 nM, 154 nM and 93.6 nM, respectively. Further, the figures for the koff (with His-SUMO-GGS-SBP [7]; in assay [8]) were 0.00919 s⁻¹ and 0.00409 s⁻¹, respectively. The kon came out at 98200 M⁻¹ s⁻¹ with His-SUMO-GGS-SBP [7] and 26600 M⁻¹ s⁻¹ in assay [8].

B1: GroTAC2 (synthetic) (designed binder)
peptide: CYRGGRPALRVVKGGSGGSGGSWMTTPWGFHLP
notes: flexible linker; also called untagged, synthetic GroTAC2; source: synthetic peptide (GeneScript)
In the assay with His-ZBD, B1 showed a Kd of 52.6 nM, a koff of 0.00165 s⁻¹ and a kon of 31400 M⁻¹ s⁻¹.

B2: GroTAC3 (synthetic) (designed binder)
peptide: CYRGGRPALRVVK[PEG3′]SWMTTPWGFHLP
notes: residues 17-28 in the model PDB 8S32; the (PEG)3 linker is no amino acid stretch; also called XB-PEG3-SBP; source: synthetic peptide (KareBay Biochem)
In the assay with His-ZBD, B2 yielded a Kd of 82.4 nM, a koff of 0.000915 s⁻¹ and a kon of 11100 M⁻¹ s⁻¹.

For the origin of these results see article PMC12373786, “Targeted protein degradation in Escherichia coli using CLIPPERs” (EMBO Reports, 2025).
